Measurements published in the Human Domainome abundance scans (Beltran et al. 2025).

B1: Membrane-associated guanylate kinase, WW and PDZ domain-containing protein 2, residues 601 to 682; numbered along this chain, Q86UL8 (parent)
chain: AELMTLTIVKGAQGFGFTIADSPTGQRVKQILDIQGCPGLCEGDLIVEINQQNVQNLSHTEVVDILKDCPIGSETSLIIHRG
B2: Endonuclease CUE2, residues 9 to 47; numbered along this chain, P36075 (parent)
chain: HESKLSILMDMFPAISKSKLQVHLLENNNDLDLTIGLLL

Variants of: B1
Assay: abundance fitness (aPCA) (normalised: wild type 0, dead -1); higher = more abundant; growth selection in yeast, the domain comes from the species named
Details: Homo sapiens

Abundance fitness, by site and new letter:
H80: F -0.128; E 0.019; C -0.121
I31: T -0.097; V -0.035; S -0.251
G36: H -0.126; F -0.245; V -0.009
R27: C -0.589; W -0.054
S22: E -0.114; W -0.056; N -0.39
L57: K -0.108; M -0.283; S 0.028
L45: W -0.161
N50: V -0.626; E 0.013
K67: N -0.022; I -0.324; C -0.117; M -0.003; Y -0.226
E48: S -0.004
E2: W -0.214; A -0.032; V -0.077
I78: N -0.011; A -0.179

Variants of: B2
Assay: as above
Details: Saccharomyces cerevisiae (strain ATCC 204508 / S288c)

Abundance fitness: each site, then its substitutions
L31: S -0.816; M -0.211; P -1.01; W -0.694; T -0.35; K -0.752; V 0.136; R -0.841; N -0.881; Q -0.483
L38: Q -0.664; C -0.116; N -0.471; M -0.054; V -0.27; K -0.983; E -0.568; S -0.768; W -1.02; D -0.1; A -0.375; R -0.792; P -0.497; T -0.628; G -0.557
G36: D 0.058; E 0.067; M -0.291; Q 0.004; C -0.042; S 0.092; W -0.452; V -0.383; N -0.054; T 0.021; A 0.025; F -0.14; L -0.438; Y -0.447; K 0.076; P -0.056
L33: R 0.082; I -0.089; G 0.031; Y -0.004; E 0.06; F -0.258; M -0.001; P -0.008; S -0.034; C 0.012; W -0.4; V 0.03; T -0.004; K 0.036; D 0.031; N 0.075; H -0.456; Q -0.068
T34: S -0.235; N -0.296; E -0.903; P -0.943; C -0.091; K -0.863; A -0.092; Q -0.899; I -0.447; R -0.993; G -0.632; W -1.19; D -0.88; V 0.008; L -0.729
L37: R 0.081; G -0.014; Y 0.007; M -0.042; P -0.099; W -0.128; N -0.003; H -0.034; D -0.049; C 0.06; Q -0.016; T 0.098; A 0.055; E 0.001; V -0.054; S 0.026; K 0.045
D32: V -0.302; E -0.055; A -0.124; G -0.082; N 0.07; T -0.183; L -0.416; Y -0.659; K -0.003; W -0.499; H -0.106; Q 0.032; R -0.091
L39: W -0.066; T 0.122; G 0.122; K 0.33; Q 0.132; I -0.182; H -0.062; E 0.154; N 0.081; V -0.046; S 0.1; R 0.276; F -0.084; P -0.199; M 0.167
I35: G -0.596; C -0.114; P -0.8; L -0.165; K 0.07; D -0.78; A -0.04; H -0.371; F -0.75; N -0.532; W -0.483; V -0.067; Y -0.174; S -0.153; M -0.065; R 0.07; T -0.053
